Measurements: patent US20210317168

Target: purified MN gp120 (clade B), P05877

B1: Calcium-dependent serine protease, complement component 1s (C1s) of CHO cells (protein)
chain: EPTMHGEILSPNYPQAYPNEIEKTWDIEVPEGFGIRLYFTHLDMELSENCEYDSVQIISGGVEEGRLCGQRTSKNANSPIVEEFQMPYNKLQVIFRSDFSNEERFTGFAAYYAAVDINECTDFTDVPCSHFCNNFIGGYFCSCPPEYFLHDDMRNCGVNCSGNVFTALIGEISSPNYPSPYPENSRCEYQILLEEGFQVVVTIRREDFDVEPADSEGNCQDSLLFAAKNQLFGPYCGNGFPGPLTIETHSNTLDIVFQTDLTEQRKGWKLRYHGDPIPCPKEITANSVWVPEKAKYVFKDVVKISCVDGFEVVEGNVGSAFFYSTCQSNGQWSNSRLQCQPVDCGIPEPIQNGKVDDPENTVFGSVIQYSCEEPYYYMEHEEHGGEYRCAANGSWVNDELGIELPKCVPVCGVPTEPIALQQRIFGGFPAKIQSFPWQVFFESPRAGGALIDEYWVLTAAHVVEGNSDPSMYVGTTFVRMEHLANAQRLTAERVIIHPGWKPADDLETRTNFDNDIALVQLKDPVKMGPTVSPICLPGTSSEYNPSKNDLGLISGWGRTEKRNIVPQLKGAKLPVTSLEKCQQVKGENSKVRADDYVFTSNMICAGEKGVDSCQGDSGGAFALQVPNVKDPKFYVAGLVSWGKKCGTYGIYTKVKNYMDWIVKTMQENSVPSKD
For B1, the “proteolysis of gp120 in 10x concentrated CHO supernatant, western blot, with or without EGTA” value was “inhibition of proteolysis of gp120 in CHO cell supernatant with EGTA, a calcium-chelating agent suggested that C1s is the major protease responsible for gp120 cleavage”.
